Our source for the abundance fitness values is the Human Domainome abundance scans (Beltran et al. 2025).

± gives the uncertainty stated by the source.

B1: Far upstream element-binding protein 1, residues 184 to 257; numbered along this chain, Q96AE4 (parent)
chain: GNAVQEIMIPASKAGLVIGKGGETIKQLQERAGVKMVMIQDGPQNTGADKPLRITGDPYKVQQAKEMVLELIRD

The variants in the data set derive from B1. The data set is described as follows: abundance fitness (aPCA) (normalised: wild type 0, dead -1); higher = more abundant; growth selection in yeast, the domain comes from the species named. The settings on record: Homo sapiens.
Turning to GNAVQEIMIPADKAGLVIGKGGETIKQLQERAGVKMVMIQDGPQNTGADKPLRITGDPYKVQQAKEMVLELIRD [S12D], the abundance fitness is 0.004 ± 0.043.
For GNAVQEIMIPAEKAGLVIGKGGETIKQLQERAGVKMVMIQDGPQNTGADKPLRITGDPYKVQQAKEMVLELIRD [S12E], the abundance fitness is -0.016 ± 0.034.
Regarding GNAVQEIMIPAGKAGLVIGKGGETIKQLQERAGVKMVMIQDGPQNTGADKPLRITGDPYKVQQAKEMVLELIRD [S12G], the abundance fitness was 0.002 ± 0.027.
For GNAVQEIMIPAHKAGLVIGKGGETIKQLQERAGVKMVMIQDGPQNTGADKPLRITGDPYKVQQAKEMVLELIRD [S12H] the value was -0.018 ± 0.054; for GNAVQEIMIPACKAGLVIGKGGETIKQLQERAGVKMVMIQDGPQNTGADKPLRITGDPYKVQQAKEMVLELIRD [S12C], -0.133 ± 0.044.
In the case of GNAVQEIMIPAAKAGLVIGKGGETIKQLQERAGVKMVMIQDGPQNTGADKPLRITGDPYKVQQAKEMVLELIRD [S12A], the abundance fitness worked out at 0.012 ± 0.033.
The figure for GNAVQEIMIPAFKAGLVIGKGGETIKQLQERAGVKMVMIQDGPQNTGADKPLRITGDPYKVQQAKEMVLELIRD [S12F] is -0.207 ± 0.062; for GNAVQEIMLPASKAGLVIGKGGETIKQLQERAGVKMVMIQDGPQNTGADKPLRITGDPYKVQQAKEMVLELIRD [I9L] it is -0.087 ± 0.029; for GNAVQEIMWPASKAGLVIGKGGETIKQLQERAGVKMVMIQDGPQNTGADKPLRITGDPYKVQQAKEMVLELIRD [I9W] it is -0.964 ± 0.049.
In the case of GNAVQEIMYPASKAGLVIGKGGETIKQLQERAGVKMVMIQDGPQNTGADKPLRITGDPYKVQQAKEMVLELIRD [I9Y], the abundance fitness was -0.891 ± 0.077.
Consider GNAVQEIMNPASKAGLVIGKGGETIKQLQERAGVKMVMIQDGPQNTGADKPLRITGDPYKVQQAKEMVLELIRD [I9N], for which the abundance fitness is -0.785 ± 0.065.
For GNAVQEIMVPASKAGLVIGKGGETIKQLQERAGVKMVMIQDGPQNTGADKPLRITGDPYKVQQAKEMVLELIRD [I9V], the abundance fitness was determined as 0.009 ± 0.029.
For GNAVQEIMFPASKAGLVIGKGGETIKQLQERAGVKMVMIQDGPQNTGADKPLRITGDPYKVQQAKEMVLELIRD [I9F] the value was -0.737 ± 0.066.
For the variant GNAVQEIMAPASKAGLVIGKGGETIKQLQERAGVKMVMIQDGPQNTGADKPLRITGDPYKVQQAKEMVLELIRD [I9A], the abundance fitness is -1 ± 0.056.
With GNAVQEIMQPASKAGLVIGKGGETIKQLQERAGVKMVMIQDGPQNTGADKPLRITGDPYKVQQAKEMVLELIRD [I9Q], the abundance fitness was -0.768 ± 0.055.
Turning to GNAVQEIMHPASKAGLVIGKGGETIKQLQERAGVKMVMIQDGPQNTGADKPLRITGDPYKVQQAKEMVLELIRD [I9H], the abundance fitness is -0.905 ± 0.088.
The figure for GNAVQEIMSPASKAGLVIGKGGETIKQLQERAGVKMVMIQDGPQNTGADKPLRITGDPYKVQQAKEMVLELIRD [I9S] is -0.913 ± 0.045.
As to GNAVQEIMMPASKAGLVIGKGGETIKQLQERAGVKMVMIQDGPQNTGADKPLRITGDPYKVQQAKEMVLELIRD [I9M], the abundance fitness is -0.312 ± 0.039.
For GNAVQEIMTPASKAGLVIGKGGETIKQLQERAGVKMVMIQDGPQNTGADKPLRITGDPYKVQQAKEMVLELIRD [I9T], the abundance fitness is -0.749 ± 0.045.
On to GNAVQEIMPPASKAGLVIGKGGETIKQLQERAGVKMVMIQDGPQNTGADKPLRITGDPYKVQQAKEMVLELIRD [I9P], for which the abundance fitness is -0.905 ± 0.055.
For the variant GNAVQEIRIPASKAGLVIGKGGETIKQLQERAGVKMVMIQDGPQNTGADKPLRITGDPYKVQQAKEMVLELIRD [M8R], the abundance fitness was -0.074 ± 0.026.
In the case of GNAVQEILIPASKAGLVIGKGGETIKQLQERAGVKMVMIQDGPQNTGADKPLRITGDPYKVQQAKEMVLELIRD [M8L], the abundance fitness is -0.075 ± 0.03.
For GNAVQEIAIPASKAGLVIGKGGETIKQLQERAGVKMVMIQDGPQNTGADKPLRITGDPYKVQQAKEMVLELIRD [M8A], the abundance fitness was -0.124 ± 0.032.
Turning to GNAVQEIEIPASKAGLVIGKGGETIKQLQERAGVKMVMIQDGPQNTGADKPLRITGDPYKVQQAKEMVLELIRD [M8E], the abundance fitness was -0.166 ± 0.039.
In the case of GNAVQEIDIPASKAGLVIGKGGETIKQLQERAGVKMVMIQDGPQNTGADKPLRITGDPYKVQQAKEMVLELIRD [M8D], the abundance fitness is -0.23 ± 0.046.
GNAVQEIIIPASKAGLVIGKGGETIKQLQERAGVKMVMIQDGPQNTGADKPLRITGDPYKVQQAKEMVLELIRD [M8I]: the abundance fitness was -0.011 ± 0.047.
For GNAVQEIPIPASKAGLVIGKGGETIKQLQERAGVKMVMIQDGPQNTGADKPLRITGDPYKVQQAKEMVLELIRD [M8P], the abundance fitness was -0.094 ± 0.036.
On to GNAVQEIQIPASKAGLVIGKGGETIKQLQERAGVKMVMIQDGPQNTGADKPLRITGDPYKVQQAKEMVLELIRD [M8Q], for which the abundance fitness is -0.03 ± 0.04.
On to GNAVQEICIPASKAGLVIGKGGETIKQLQERAGVKMVMIQDGPQNTGADKPLRITGDPYKVQQAKEMVLELIRD [M8C], for which the abundance fitness is -0.339 ± 0.047.
On to GNAVQEIWIPASKAGLVIGKGGETIKQLQERAGVKMVMIQDGPQNTGADKPLRITGDPYKVQQAKEMVLELIRD [M8W], for which the abundance fitness is -0.164 ± 0.034.
Take GNAVQEINIPASKAGLVIGKGGETIKQLQERAGVKMVMIQDGPQNTGADKPLRITGDPYKVQQAKEMVLELIRD [M8N]: the abundance fitness is -0.078 ± 0.049.
With GNAVQEITIPASKAGLVIGKGGETIKQLQERAGVKMVMIQDGPQNTGADKPLRITGDPYKVQQAKEMVLELIRD [M8T], the abundance fitness was -0.106 ± 0.038.
Regarding GNAVQEIGIPASKAGLVIGKGGETIKQLQERAGVKMVMIQDGPQNTGADKPLRITGDPYKVQQAKEMVLELIRD [M8G], the abundance fitness is -0.151 ± 0.027.
GNAVQEIVIPASKAGLVIGKGGETIKQLQERAGVKMVMIQDGPQNTGADKPLRITGDPYKVQQAKEMVLELIRD [M8V]: the abundance fitness is -0.323 ± 0.032.
For GNAVQEIYIPASKAGLVIGKGGETIKQLQERAGVKMVMIQDGPQNTGADKPLRITGDPYKVQQAKEMVLELIRD [M8Y] the value was -0.133 ± 0.049; for GNAVQEIHIPASKAGLVIGKGGETIKQLQERAGVKMVMIQDGPQNTGADKPLRITGDPYKVQQAKEMVLELIRD [M8H], -0.102 ± 0.052; for GNAVQEISIPASKAGLVIGKGGETIKQLQERAGVKMVMIQDGPQNTGADKPLRITGDPYKVQQAKEMVLELIRD [M8S], -0.121 ± 0.031.
